Assay results reported in article PMC10716376, “The assembly of the Mitochondrial Complex I Assembly complex uncovers a redox pathway coordination” (Nature Communications, 2023).

Columns and labels:
Conditions in all cases: both partners purified
[1] = target: T1, ACAD9WT (mature ACAD9, residues 38-621) (human, UniProt Q9H845 38-621); assay: cryo-EM structure; ACAD9WT-ECSIT_(CTER) reconstituted (molar ratio 1:1.25) and purified by gel filtration; 25 mM HEPES, 300 mM NaCl, 1 mM TCEP, pH 7.5; C2 symmetry imposed
T1 construct: human ACAD9, mature form, residues 38-621; E. coli codon-optimised synthetic gene; Cloned into pET-21d(+); Plasmid details are in Supplementary Data 1; source: E. coli C43 (DE3), purified (HisTrap, dialysed in SEC buffer)
T1 sequence (looked up): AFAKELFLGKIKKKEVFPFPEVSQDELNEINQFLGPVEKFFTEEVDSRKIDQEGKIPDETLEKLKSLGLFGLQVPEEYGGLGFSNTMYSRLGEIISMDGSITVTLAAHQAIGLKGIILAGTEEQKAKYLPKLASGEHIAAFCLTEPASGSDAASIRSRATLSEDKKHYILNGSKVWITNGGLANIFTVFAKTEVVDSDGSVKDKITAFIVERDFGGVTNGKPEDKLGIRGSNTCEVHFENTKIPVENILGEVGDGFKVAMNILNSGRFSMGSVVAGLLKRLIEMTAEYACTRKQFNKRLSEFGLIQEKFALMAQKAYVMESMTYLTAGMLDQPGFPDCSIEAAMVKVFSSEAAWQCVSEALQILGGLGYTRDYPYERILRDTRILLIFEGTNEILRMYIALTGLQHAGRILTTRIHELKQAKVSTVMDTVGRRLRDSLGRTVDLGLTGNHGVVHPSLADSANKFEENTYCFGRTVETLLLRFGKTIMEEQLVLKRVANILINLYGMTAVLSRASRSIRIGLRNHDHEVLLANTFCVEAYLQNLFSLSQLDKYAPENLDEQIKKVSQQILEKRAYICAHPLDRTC

ACAD9_(S191A) = target: T2, ACAD9_(S191A) (human, UniProt Q9H845 38-621, S191A); assay: ITC; 25 °C; ACAD9 at 49 uM in the cell, titrated with ECSIT at 300 uM; 50 mM Tris-HCl pH 7.5, 250 mM NaCl
T2 construct: human ACAD9, residues 38-621, S191A; One FAD per protomer in the cryo-EM structure; source: E. coli C43 (DE3), purified (HisTrap, dialysed in SEC buffer)
T2 sequence (looked up): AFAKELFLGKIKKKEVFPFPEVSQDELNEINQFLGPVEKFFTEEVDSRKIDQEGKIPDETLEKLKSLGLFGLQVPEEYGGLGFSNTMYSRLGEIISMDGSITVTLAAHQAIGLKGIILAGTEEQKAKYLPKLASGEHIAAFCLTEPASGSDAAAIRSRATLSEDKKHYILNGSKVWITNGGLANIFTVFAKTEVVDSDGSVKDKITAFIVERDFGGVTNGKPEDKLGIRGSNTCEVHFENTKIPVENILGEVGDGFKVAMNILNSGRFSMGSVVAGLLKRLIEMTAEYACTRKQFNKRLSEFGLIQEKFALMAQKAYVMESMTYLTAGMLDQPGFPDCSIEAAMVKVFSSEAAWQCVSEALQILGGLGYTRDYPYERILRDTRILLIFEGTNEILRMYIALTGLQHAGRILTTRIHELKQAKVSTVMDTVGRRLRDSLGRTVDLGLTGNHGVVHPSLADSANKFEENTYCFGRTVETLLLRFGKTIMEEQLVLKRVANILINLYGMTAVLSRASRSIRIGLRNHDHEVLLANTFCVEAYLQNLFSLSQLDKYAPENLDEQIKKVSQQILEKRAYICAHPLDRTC

ACAD9_(A184S/SR194TS) = target: T3, ACAD9_(A184S/SR194TS) (human, UniProt Q9H845 38-621, A184S | SR194TS); assay: mass photometry; ACAD9 (or VLCAD) at 20-50 nM in 25 mM HEPES pH 7.5, 250 mM NaCl, or diluted in 4.8 uM ECSIT solution for complex formation
T3 construct: human ACAD9, residues 38-621, A184S and SR194TS combined (mimics the VLCAD gatekeeper loop); source: E. coli C43 (DE3), purified (HisTrap, dialysed in SEC buffer)
T3 sequence (looked up): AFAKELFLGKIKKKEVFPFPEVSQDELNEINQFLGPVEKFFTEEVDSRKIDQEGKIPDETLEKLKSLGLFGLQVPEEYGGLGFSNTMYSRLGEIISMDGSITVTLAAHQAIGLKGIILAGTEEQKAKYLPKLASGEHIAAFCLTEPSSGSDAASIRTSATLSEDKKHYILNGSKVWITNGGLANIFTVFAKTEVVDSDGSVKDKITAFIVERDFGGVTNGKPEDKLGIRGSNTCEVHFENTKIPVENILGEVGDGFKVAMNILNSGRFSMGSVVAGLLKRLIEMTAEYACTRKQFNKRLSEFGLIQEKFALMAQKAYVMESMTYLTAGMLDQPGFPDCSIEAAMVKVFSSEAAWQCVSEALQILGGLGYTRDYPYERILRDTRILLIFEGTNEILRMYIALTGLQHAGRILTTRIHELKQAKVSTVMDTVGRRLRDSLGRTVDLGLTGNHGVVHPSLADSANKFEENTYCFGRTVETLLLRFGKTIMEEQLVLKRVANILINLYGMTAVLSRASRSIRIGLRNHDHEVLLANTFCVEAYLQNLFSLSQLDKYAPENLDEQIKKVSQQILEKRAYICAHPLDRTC

ACAD9_(SR194TS) = target: T4, ACAD9_(SR194TS) (human, UniProt Q9H845 38-621, SR194TS); assay: dynamic light scattering; 278 K, protein at 1-2 mg/ml; complexes reconstituted at molar ratio 1:1.25
T4 construct: human ACAD9, residues 38-621, double mutant SR194TS (mimics the VLCAD gatekeeper loop); source: E. coli C43 (DE3), purified (HisTrap, dialysed in SEC buffer)
T4 sequence (looked up): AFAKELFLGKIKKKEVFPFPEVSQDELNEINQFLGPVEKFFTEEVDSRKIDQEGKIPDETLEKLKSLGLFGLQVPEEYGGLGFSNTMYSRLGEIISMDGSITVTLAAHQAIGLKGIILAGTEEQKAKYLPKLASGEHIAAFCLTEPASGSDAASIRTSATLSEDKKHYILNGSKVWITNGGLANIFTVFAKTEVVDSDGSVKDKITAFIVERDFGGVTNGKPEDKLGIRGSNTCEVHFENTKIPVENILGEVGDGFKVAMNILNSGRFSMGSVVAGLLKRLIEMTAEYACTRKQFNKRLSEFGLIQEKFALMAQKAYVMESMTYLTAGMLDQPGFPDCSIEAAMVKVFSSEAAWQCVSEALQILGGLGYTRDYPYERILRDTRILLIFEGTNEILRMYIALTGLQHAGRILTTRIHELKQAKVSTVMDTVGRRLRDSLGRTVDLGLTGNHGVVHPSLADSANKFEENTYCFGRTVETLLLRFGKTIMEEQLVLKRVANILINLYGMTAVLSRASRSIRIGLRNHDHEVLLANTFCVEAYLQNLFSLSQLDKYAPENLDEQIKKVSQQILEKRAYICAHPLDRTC

ACAD9_(A184S) = target: T5, ACAD9_(A184S) (human, UniProt Q9H845 38-621, A184S); assay: as above
T5 construct: human ACAD9, residues 38-621, A184S (mimics the VLCAD gatekeeper loop); source: E. coli C43 (DE3), purified (HisTrap, dialysed in SEC buffer)
T5 sequence (looked up): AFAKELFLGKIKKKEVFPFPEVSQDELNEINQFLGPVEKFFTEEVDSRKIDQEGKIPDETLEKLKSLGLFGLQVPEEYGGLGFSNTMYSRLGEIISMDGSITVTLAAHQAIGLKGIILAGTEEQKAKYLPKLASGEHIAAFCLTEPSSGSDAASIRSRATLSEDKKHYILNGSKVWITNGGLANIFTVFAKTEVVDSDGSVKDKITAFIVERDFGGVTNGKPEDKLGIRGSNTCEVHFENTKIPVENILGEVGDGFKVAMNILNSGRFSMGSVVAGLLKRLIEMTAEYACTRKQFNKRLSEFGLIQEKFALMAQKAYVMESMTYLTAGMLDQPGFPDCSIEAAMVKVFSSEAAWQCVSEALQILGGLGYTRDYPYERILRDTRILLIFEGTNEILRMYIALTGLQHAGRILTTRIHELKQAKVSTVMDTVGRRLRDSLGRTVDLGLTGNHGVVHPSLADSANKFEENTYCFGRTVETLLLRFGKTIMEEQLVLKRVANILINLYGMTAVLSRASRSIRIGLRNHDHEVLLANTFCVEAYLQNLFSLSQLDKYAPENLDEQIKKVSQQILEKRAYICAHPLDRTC

B1: ECSIT_(CTER) (residues 221-431) (domain or fragment, human, UniProt Q9BQ95 221-431, looked up)
chain: QDPVELAMFGLRHMEPDLSARVTIYQVPLPKDSTGAADPPQPHIVGIQSPDQQAALARHNPARPVFVEGPFSLWLRNKCVYYHILRADLLPPEEREVEETPEEWNLYYPMQLDLEYVRSGWDNYEFDINEVEEGPVFAMCMAGAHDQATMAKWIQGLQETNPTLAQIPVVFRLAGSTRELQTSSAGLEEPPLPEDHQEEDDNLQRQQQGQS
notes: human ECSIT, residues 221-431; E. coli codon-optimised synthetic gene; Only residues 320-334 are modelled in the cryo-EM map; Plasmid details are in Supplementary Data 1; also called C-terminal ECSIT; source: E. coli BL21 Star (DE3), purified (HisTrap, SEC)
[1]
  stoichiometry N: 1 ECSIT_(CTER) per ACAD9 protomer
ACAD9_(S191A)
  Kd: 3.93 µM
  fold decrease in fold change against ACAD9WT-ECSIT_(CTER): ~3 fold
ACAD9_(A184S/SR194TS)
  binding result: binds
ACAD9_(SR194TS)
  binding result: binds
ACAD9_(A184S)
  binding result: binds
